Laboratory results published in patent US20030032595A1.

Target: Kv1.3 of rat L6 skeletal muscle cells (rat) (UniProt P15384)
Assay: cell-based or functional assay

Sequence of Kv1.3 of rat L6 skeletal muscle cells (rat) (P15384 whole entry): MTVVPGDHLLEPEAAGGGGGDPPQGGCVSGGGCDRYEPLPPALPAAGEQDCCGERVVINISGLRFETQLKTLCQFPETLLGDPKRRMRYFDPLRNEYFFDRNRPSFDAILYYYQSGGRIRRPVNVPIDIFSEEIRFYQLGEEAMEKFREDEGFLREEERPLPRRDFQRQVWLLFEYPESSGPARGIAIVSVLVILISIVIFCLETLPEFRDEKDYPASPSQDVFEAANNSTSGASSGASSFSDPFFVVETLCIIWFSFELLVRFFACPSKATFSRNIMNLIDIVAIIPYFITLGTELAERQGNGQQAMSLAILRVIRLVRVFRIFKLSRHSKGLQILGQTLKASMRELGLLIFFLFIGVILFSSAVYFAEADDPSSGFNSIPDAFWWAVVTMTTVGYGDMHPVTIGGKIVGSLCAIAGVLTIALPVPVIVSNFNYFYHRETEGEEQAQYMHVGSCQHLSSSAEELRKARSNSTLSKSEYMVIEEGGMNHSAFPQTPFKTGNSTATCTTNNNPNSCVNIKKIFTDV

Substance: margatoxin (from UniProt P40755 1-39) (peptide)
- concentration necessary for 1/2 maximal increase in glucose uptake (L6 cells): 53 nM
